Laboratory results reported in patent US6670183.

Assays:
[1] = target: GP88 cell surface receptors on CCL64 mink lung epithelial cells (mink); assay: Scatchard analysis, 125I-rGP88 displaced by cold rGP88 on CCL64 cells in suspension; low affinity class of sites
[2] = target: GP88 cell surface receptors on CCL64 mink lung epithelial cells (mink); assay: Scatchard analysis, 125I-rGP88 on CCL64 cells; low affinity class of sites
[3] = target: GP88 cell surface receptors on CCL64 mink lung epithelial cells (mink); assay: Scatchard analysis, 125I-rGP88 displaced by cold rGP88 on CCL64 cells in suspension; high affinity class of sites
[4] = target: GP88 cell surface receptors on CCL64 mink lung epithelial cells (mink); assay: Scatchard analysis, 125I-rGP88 on CCL64 cells; high affinity class of sites

B1: recombinant GP88 (rGP88), mouse GP88 expressed in baculovirus infected Sf9 insect cells (ligand)
chain: TQCPDGQFCPVACCLDQGGANYSCCNPLLDTWPRITSHHLDGSCQTHGHCPAGYSCLLTVSGTSSCCPFSKGVSCGDGYHCCPQGFHCSADGKSCFQMSDNPLGAVQCPGSQFECPDSATCCIMVDGSWGCCPMPQASCCEDRVHCCPHGASCDLVHTRCVSPTGTHTLLKKFPAQKTNSAVSLPFSVVCPDAKTQCPDDSTCCELPTGKYGCCPMPNAICCSDHLHCCPQDTVCDLIQSKCLSKNYTTDLLTKLPGYPVKEVKCDMEVSCPEGYTCCRLNTGAWGCCPFAKAVCCDDHIHCCPAGFQCHTEKGTCEMGILQVGWMKKVIAPLRLPDPQILKSDTPCDDFTRCPTNNTCCKLNSGDWGCCPIPEAVCCSDNQHCCPQGFTCLAQGYCQKGDTMVAGLEKIPARQTTPLQIGDIGCDQHTSCPVGQTCCPSLKGSWACCQLPHAVCCEDRQHCCPAGYTCNVKARTCEKDVDFIQPPVLLTLGPKVGNVECGEGHFCHDNQTCCKDSAGVWACCPYLKGVCCRDGRHCCPGGFHCSARGTKCLRKKIPRWDMFLRDPVPRPLL
modifications: the labelled form is 125I-iodinated by the chloramine T method (residues not stated)
Q: With B1 as the binder, how does the Kd [1] read?
A: The Kd was 3.9 nM.

Q: And the sites/cell [2]?
A: Its sites/cell is 17000 sites/cell.

Q: And the Kd [3]?
A: The Kd was 0.043 nM.

Q: And the sites/cell [4]?
A: The sites/cell was 560 sites/cell.
